Measured values as given in publication PMC5482882, “Aldosterone Modulates the Association between NCC and ENaC” (Scientific Reports, 2017).

What was measured:
Conditions in all cases: partners not purified
[1] = biological target: T1, NCC-pBIND (full-length NCC fused to the GAL4 DNA-binding domain) (UniProt P59158 1-1002); experiment: two-hybrid; Checkmate mammalian two-hybrid in transiently transfected COS-7 cells; NCC-pBIND (GAL4 DNA-binding domain) with α- or γ-pACT (VP16) and pG5luc; firefly luciferase normalized to Renilla, fold change of negative control (empty pBIND + pACT); with or without co-transfected SGK1 or WNK4; read 48 hours after transfection
T1 construct: source: COS-7, transiently transfected, mammalian two-hybrid fusion
T1 sequence (looked up): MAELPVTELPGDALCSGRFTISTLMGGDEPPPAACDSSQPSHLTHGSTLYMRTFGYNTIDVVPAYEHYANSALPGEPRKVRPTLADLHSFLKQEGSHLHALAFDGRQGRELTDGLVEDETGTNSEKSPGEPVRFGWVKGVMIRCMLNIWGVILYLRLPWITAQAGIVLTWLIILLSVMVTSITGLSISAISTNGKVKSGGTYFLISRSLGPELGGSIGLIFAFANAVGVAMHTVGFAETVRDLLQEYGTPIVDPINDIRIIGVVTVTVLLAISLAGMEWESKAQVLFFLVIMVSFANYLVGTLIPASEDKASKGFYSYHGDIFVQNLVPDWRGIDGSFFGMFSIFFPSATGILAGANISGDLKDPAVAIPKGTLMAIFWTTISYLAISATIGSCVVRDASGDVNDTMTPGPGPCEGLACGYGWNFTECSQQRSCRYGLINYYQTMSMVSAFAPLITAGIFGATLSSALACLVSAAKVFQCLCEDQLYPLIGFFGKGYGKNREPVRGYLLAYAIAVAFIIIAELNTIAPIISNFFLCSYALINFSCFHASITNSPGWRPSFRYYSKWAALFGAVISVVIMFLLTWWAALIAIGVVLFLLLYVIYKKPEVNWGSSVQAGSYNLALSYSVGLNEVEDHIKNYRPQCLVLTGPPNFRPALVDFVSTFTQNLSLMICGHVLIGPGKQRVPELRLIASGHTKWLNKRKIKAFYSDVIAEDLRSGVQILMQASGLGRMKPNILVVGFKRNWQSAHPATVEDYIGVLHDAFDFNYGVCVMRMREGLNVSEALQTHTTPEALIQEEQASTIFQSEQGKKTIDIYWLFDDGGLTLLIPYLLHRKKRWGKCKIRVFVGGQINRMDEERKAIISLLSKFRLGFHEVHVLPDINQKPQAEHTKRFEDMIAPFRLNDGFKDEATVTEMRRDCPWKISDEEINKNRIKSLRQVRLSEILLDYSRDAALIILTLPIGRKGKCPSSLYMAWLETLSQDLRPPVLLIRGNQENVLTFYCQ

[2] = biological target: T2, thiazide-sensitive sodium chloride cotransporter (NCC) (mouse (endogenous in mDCT15 cells and …, UniProt P59158 1-1002)); experiment: co-IP; mDCT15 whole cell lysates (about 800 ug protein per column), anti-NCC antibody coupled to resin (Pierce Co-Immunoprecipitation Kit), eluate blotted for αENaC; cells treated with vehicle (EtOH), Aldo (100 nM, 48 hrs), Aldo + SGK1 inhibitor (GSK690394, 6 uM, 60 min) or SGK1 inhibitor alone
T2 construct: thiazide-sensitive sodium-chloride cotransporter (NCC), endogenous in mouse mDCT15 cells and mouse kidney cortex; Precipitated with an anti-NCC antibody coupled to resin (Pierce Co-Immunoprecipitation Kit); source: endogenous, mDCT15 whole cell lysate; endogenous, mouse kidney cortex homogenate
T2 sequence (looked up): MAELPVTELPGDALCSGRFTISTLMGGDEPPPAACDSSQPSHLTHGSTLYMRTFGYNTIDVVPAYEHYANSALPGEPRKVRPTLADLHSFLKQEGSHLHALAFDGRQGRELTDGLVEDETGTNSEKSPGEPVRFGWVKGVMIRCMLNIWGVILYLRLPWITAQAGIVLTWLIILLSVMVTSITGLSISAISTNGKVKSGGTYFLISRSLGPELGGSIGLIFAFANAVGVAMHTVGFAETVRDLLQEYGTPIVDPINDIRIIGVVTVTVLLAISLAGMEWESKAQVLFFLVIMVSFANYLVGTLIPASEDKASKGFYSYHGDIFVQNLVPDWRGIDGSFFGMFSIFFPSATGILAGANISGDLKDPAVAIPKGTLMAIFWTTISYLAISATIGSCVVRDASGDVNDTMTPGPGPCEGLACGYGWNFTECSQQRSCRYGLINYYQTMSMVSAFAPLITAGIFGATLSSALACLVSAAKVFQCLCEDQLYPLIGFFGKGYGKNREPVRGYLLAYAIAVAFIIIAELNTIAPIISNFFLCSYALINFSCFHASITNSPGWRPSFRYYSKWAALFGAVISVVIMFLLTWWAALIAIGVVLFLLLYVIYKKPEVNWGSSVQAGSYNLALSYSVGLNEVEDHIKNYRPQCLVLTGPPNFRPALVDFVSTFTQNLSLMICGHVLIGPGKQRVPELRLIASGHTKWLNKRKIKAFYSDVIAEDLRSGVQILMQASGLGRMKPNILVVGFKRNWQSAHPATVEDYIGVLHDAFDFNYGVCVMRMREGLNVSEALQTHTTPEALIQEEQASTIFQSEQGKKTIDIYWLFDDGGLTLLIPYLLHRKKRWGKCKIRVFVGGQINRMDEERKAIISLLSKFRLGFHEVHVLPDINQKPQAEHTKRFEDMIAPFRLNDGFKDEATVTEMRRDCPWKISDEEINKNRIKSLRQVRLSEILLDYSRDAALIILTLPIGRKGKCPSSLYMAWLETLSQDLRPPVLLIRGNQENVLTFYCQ

[3] = biological target: T2, thiazide-sensitive sodium chloride …; experiment: co-IP; mouse kidney cortex homogenates (RIPA buffer), anti-NCC antibody coupled to resin (Pierce Co-Immunoprecipitation Kit), eluate blotted for αENaC; mice on high salt (4%) chow treated with vehicle (25% DMSO in saline) or Aldo (4 ug/day, 10 d)

Row | Binder | two-hybrid luciferase signal, fold of negative control [1] | fold change of αENaC co-precipitated with NCC, Aldo + SGK1 inhibitor against vehicle [2] [fold change/vehicle] | fold change of αENaC co-precipitated with NCC, Aldo against vehicle [2] [fold change/vehicle] | fold change of αENaC relative to NCC in the CoIP fractions, Aldo against vehicle [2] [fold change/vehicle] | fold change of αENaC co-precipitated with NCC, Aldo against vehicle [3] [fold change/vehicle] | two-hybrid luciferase signal, fold of negative control, with SGK1 co-transfected [1]
1 | γ-pACT (full-length γENaC fused to the VP16 activation domain) (natural protein, UniProt Q9WU39 1-655, looked up, epithelial sodium channel (ENaC) gamma subunit, full-length clone in pACT; source: COS-7, transiently transfected, mammalian two-hybrid fusion) MAPGEKIKAKIKKNLPVRGPQAPTIKDLMHWYCLNTNTHGCRRIVVSRGRLRRLLWIAFTLTAVALIIWQCALLVFSFYTVSVSIKVHFQKLDFPAVTICNINPYKYSAVSDLLTDLDSETKQALLSLYGVKDVLDSTPRKRREAGSMRSTWEGTPPRFLNLIPLLVFNENEKGKARDFFTGRKRKISGKIIHKASNVMHVHESKKLVGFQLCSNDTSDCATYTFSSGINAIQEWYKLHYMNIMAQVPLEKKINMSYSAEELLVTCFFDGMSCDARNFTLFHHPMYGNCYTFNNRENATILSTSMGGSEYGLQVILYINEDEYNPFLVSSTGAKVLVHQQNEYPFIEDVGTEIETAMSTSIGMHLTESFKLSEPYSQCTEDGSDVPVTNIYNAAYSLQICLYSCFQTKMVEKCGCAQYSQPLPPAANYCNYQQHPNWMYCYYQLYQAFVREELGCQSVCKQSCSFKEWTLTTSLAQWPSEASEKWLLNVLTWDQSQQINKKLNKTDLAKLLIFYKDLNQRSIMESPANSIEMLLSNFGGQLGLWMSCSVVCVIEIIEVFFIDFFSIIARRQWQKAKDWWARRRTPPSTETPSSQQGQDNPALDTDDDLPTFTSAMRLPPAPEAPVPGTPPPRYNTLRLDSAFSSQLTDTQLTNEF | 4.33 fold change of negative control | – | – | – | – | –
2 | epithelial sodium channel alpha subunit (αENaC) (natural protein, UniProt Q61180 1-699, looked up, epithelial sodium channel (ENaC) alpha subunit, endogenous in mouse mDCT15 cells and mouse kidney cortex; Detected by immunoblot with an αENaC antibody in the NCC precipitate; source: endogenous, mDCT15 whole cell lysate; endogenous, mouse kidney cortex homogenate) MLDHTRAPELNLDLDLDVSNSPKGSMKGNNFKEQDLCPPLPMQGLGKGDKREEQALGPEPSEPRQPTEEEEALIEFHRSYRELFQFFCNNTTIHGAIRLVCSKHNRMKTAFWAVLWLCTFGMMYWQFALLFEEYFSYPVSLNINLNSDKLVFPAVTVCTLNPYRYTEIKEDLEELDRITEQTLFDLYKYNSSYTRQAGGRRRSTRDLRGALPHPLQRLRTPPPPNPARSARSASSSVRDNNPQVDRKDWKIGFQLCNQNKSDCFYQTYSSGVDAVREWYRFHYINILSRLPDTSPALEEEALGSFIFTCRFNQAPCNQANYSQFHHPMYGNCYTFNNKNNSNLWMSSMPGVNNGLSLTLRTEQNDFIPLLSTVTGARVMVHGQDEPAFMDDGGFNVRPGVETSISMRKEALDSLGGNYGDCTENGSDVPVKNLYPSKYTQQVCIHSCFQENMIKKCGCAYIFYPKPKGVEFCDYLKQSSWGYCYYKLQAAFSLDSLGCFSKCRKPCSVTNYKLSAGYSRWPSVKSQDWIFEMLSLQNNYTINNKRNGVAKLNIFFKELNYKTNSESPSVTMVSLLSNLGSQWSLWFGSSVLSVVEMAELIFDLLVITLIMLLHRFRSRYWSPGRGARGAREVASTPASSFPSRFCPHPTSPPPSLPQQGTTPPLALTAPPPAYATLGPSASPLDSAVPGSSACAPAMAL | – | 1.55 | 2.05 | 1.55 | 3.07 | –
3 | α-pACT (full-length αENaC fused to the VP16 activation domain) (natural protein, UniProt Q61180 1-699, looked up, epithelial sodium channel (ENaC) alpha subunit, full-length clone in pACT; source: COS-7, transiently transfected, mammalian two-hybrid fusion) MLDHTRAPELNLDLDLDVSNSPKGSMKGNNFKEQDLCPPLPMQGLGKGDKREEQALGPEPSEPRQPTEEEEALIEFHRSYRELFQFFCNNTTIHGAIRLVCSKHNRMKTAFWAVLWLCTFGMMYWQFALLFEEYFSYPVSLNINLNSDKLVFPAVTVCTLNPYRYTEIKEDLEELDRITEQTLFDLYKYNSSYTRQAGGRRRSTRDLRGALPHPLQRLRTPPPPNPARSARSASSSVRDNNPQVDRKDWKIGFQLCNQNKSDCFYQTYSSGVDAVREWYRFHYINILSRLPDTSPALEEEALGSFIFTCRFNQAPCNQANYSQFHHPMYGNCYTFNNKNNSNLWMSSMPGVNNGLSLTLRTEQNDFIPLLSTVTGARVMVHGQDEPAFMDDGGFNVRPGVETSISMRKEALDSLGGNYGDCTENGSDVPVKNLYPSKYTQQVCIHSCFQENMIKKCGCAYIFYPKPKGVEFCDYLKQSSWGYCYYKLQAAFSLDSLGCFSKCRKPCSVTNYKLSAGYSRWPSVKSQDWIFEMLSLQNNYTINNKRNGVAKLNIFFKELNYKTNSESPSVTMVSLLSNLGSQWSLWFGSSVLSVVEMAELIFDLLVITLIMLLHRFRSRYWSPGRGARGAREVASTPASSFPSRFCPHPTSPPPSLPQQGTTPPLALTAPPPAYATLGPSASPLDSAVPGSSACAPAMAL | 7.74 fold change of negative control | – | – | – | – | 14.7 fold change of negative control
